Source: the supplement of paper PMC6757056
± gives the standard deviation of the averaged measurements.

B1: library; a variant is named by its letters at N, in order (parent)
chain: GCUGUCACCGAGAAACUGUGAAGUAUAUCUUAAACCUGGGCACUUAAAAGAUAUAUGGAGUUAGUAGUGCAACCUGCUCGGUCUGAUGAGUCCNNNNNNGGACGAAACAGC

Legend:
[1] = variants of: B1; experiment: FACS-Seq fitted mean relative fluorescence mCherry/BFP without ligand (log10 relative fluorescence); HEK293T; ligand: cyclic di-GMP (c-di-GMP-II aptamer); higher = higher reporter protein expression; conditions: ligand present: no
Experimental: (§1)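 Hammerhead (sTRSV) ribozyme switch libraries with a ligand aptamer grafted on stem I and a randomized N4-6 loop II, cloned into the 3' UTR of mCherry and transiently transfected into HEK293T cells; RNA-Seq 72 h post transfection with ligand added 1 h before transfection; RNA read count / plasmid DNA read count normalized to the non-cleaving sTRSVctl (x100), log10; sequences with >100 DNA reads. FACS-Seq: lentiviral library sorted into 6 bins after 48 h ligand, log-normal fit mean of mCherry/BFP scaled to controls. Printed sequences are partial switch sequences.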

[2] = variants of: B1; experiment: normalized RNA/DNA level without ligand (relative to sTRSVctl = 100) (log10 (% of sTRSVctl)); HEK293T; ligand: cyclic di-GMP (c-di-GMP-II aptamer); higher = less ribozyme self-cleavage, higher mRNA level; conditions: reporter: mCherry (pCS4076), ligand present: no
Experimental: as §1

[3] = variants of: B1; experiment: FACS-Seq fitted mean relative fluorescence mCherry/BFP with ligand (log10 relative fluorescence); HEK293T; ligand: cyclic di-GMP (c-di-GMP-II aptamer); ligand concentration (+) FACS-Seq: 1 mM; higher = higher reporter protein expression; conditions: ligand present: yes
Experimental: as §1

[4] = variants of: B1; experiment: normalized RNA/DNA level with ligand (relative to sTRSVctl = 100) (log10 (% of sTRSVctl)); HEK293T; ligand: cyclic di-GMP (c-di-GMP-II aptamer); ligand concentration (+) RNA-Seq: 1 mM; higher = less ribozyme self-cleavage, higher mRNA level; conditions: reporter: mCherry (pCS4076), ligand present: yes
Experimental: as §1

| Variant | FACS-Seq fitted mean (log10) [1] | normalized RNA/DNA level without ligand (log10) [2] | FACS-Seq fitted mean (log10) [3] | normalized RNA/DNA level with ligand (log10) [4] |
| --- | --- | --- | --- | --- |
| GAAGCG | -0.36 ± 0.013 | 1.841 ± 0.018 | -0.268 ± 0.16 | 1.87 ± 0.069 |
| GACAUA | -0.45 ± 0.0083 | 1.52 ± 0.04 | -0.156 ± 0.096 | 1.68 ± 0.064 |
| CACAUU | -0.323 ± 0.046 | 1.58 ± 0.025 | -0.0216 ± 0.035 | 1.7 ± 0.1 |
| CACAUA | -0.521 ± 0.032 | 1.26 ± 0.07 | -0.272 ± 0.044 | 1.52 ± 0.093 |
| CACAGU | -0.189 ± 0.13 | 1.74 ± 0.045 | 0.105 ± 0.062 | 1.85 ± 0.064 |
| CACAGA | -0.384 ± 0.025 | 1.53 ± 0.058 | -0.0508 ± 0.039 | 1.74 ± 0.1 |
| UAAAAG | -0.3384 ± 0.0033 | 1.685 ± 0.0079 | -0.102 ± 0.2 | 1.84 ± 0.1 |
| AAAUAA | -0.515 ± 0.032 | 1.45 ± 0.067 | -0.21 ± 0.07 | 1.68 ± 0.12 |
| AAAUAU | -0.442 ± 0.052 | 1.6004 ± 0.00073 | -0.152 ± 0.097 | 1.78 ± 0.11 |
| UAACGG | -0.162 ± 0.15 | 1.6716 ± 2.5e-05 | 0.21 ± 0.0062 | 1.82 ± 0.1 |
| UAACGU | -0.388 ± 0.07 | 1.51 ± 0.095 | -0.125 ± 0.05 | 1.71 ± 0.12 |
| UAACGC | -0.0408 ± 0.21 | 1.66 ± 0.04 | 0.122 ± 0.082 | 1.79 ± 0.17 |
| UAACGA | -0.0411 ± 0.064 | 1.59 ± 0.026 | 0.272 ± 0.15 | 1.76 ± 0.089 |
| GAAAAA | -0.369 ± 0.068 | 1.41 ± 0.1 | -0.0537 ± 0.033 | 1.61 ± 0.12 |
| GAAAAU | -0.15 ± 0.048 | 1.55 ± 0.048 | 0.162 ± 0.015 | 1.74 ± 0.1 |
| GAAAAG | -0.45 ± 0.058 | 1.575 ± 0.0029 | -0.228 ± 0.032 | 1.74 ± 0.14 |
| UAAUUU | -0.1701 ± 0.00076 | 1.688 ± 0.0068 | -0.0196 ± 0.026 | 1.87 ± 0.11 |
| UACAGA | -0.198 ± 0.37 | 1.61 ± 0.052 | -0.101 ± 0.13 | 1.75 ± 0.14 |
| CAAAAC | -0.495 ± 0.03 | 1.58 ± 0.055 | -0.278 ± 0.08 | 1.77 ± 0.14 |
| CAAAAA | -0.703 ± 0.047 | 1.21 ± 0.087 | -0.444 ± 0.071 | 1.46 ± 0.079 |
| CAAAAU | -0.237 ± 0.17 | 1.45 ± 0.11 | 0.0784 ± 0.017 | 1.65 ± 0.085 |
| GAAUAG | -0.662 ± 0.05 | 1.64 ± 0.018 | -0.40149 ± 0.00037 | 1.78 ± 0.15 |
| GAAUAA | -0.287 ± 0.05 | 1.44 ± 0.067 | -0.0182 ± 0.045 | 1.68 ± 0.15 |
| CAAACA | -0.651 ± 0.025 | 1.34 ± 0.069 | -0.439 ± 0.079 | 1.62 ± 0.11 |

| Variant | FACS-Seq fitted mean (log10) [1] | normalized RNA/DNA level without ligand (log10) [2] | FACS-Seq fitted mean (log10) [3] | normalized RNA/DNA level with ligand (log10) [4] |
| --- | --- | --- | --- | --- |
| UAAACA | 0.0579 ± 0.081 | 1.742 ± 0.0053 | 0.349 ± 0.078 | 1.85 ± 0.079 |
| AACAUG | 0.0898 ± 0.039 | 1.54 ± 0.053 | 0.286 ± 0.039 | 1.72 ± 0.081 |
| AACAUC | -0.233 ± 0.056 | 1.593 ± 0.012 | 0.0469 ± 0.033 | 1.75 ± 0.13 |
| AAACAU | -0.286 ± 0.077 | 1.6 ± 0.019 | -0.0737 ± 0.18 | 1.77 ± 0.11 |
| AAACAG | -0.103 ± 0.1 | 1.55 ± 0.053 | 0.169 ± 0.015 | 1.73 ± 0.095 |
| AAACAA | -0.921 ± 0.12 | 1.44 ± 0.051 | -0.77 ± 0.014 | 1.62 ± 0.1 |
| AAACAC | -0.457 ± 0.011 | 1.6 ± 0.035 | -0.124 ± 0.07 | 1.75 ± 0.082 |
| GAAUUG | -0.422 ± 0.012 | 1.57 ± 0.096 | -0.0224 ± 0.071 | 1.74 ± 0.11 |
| CACACU | -0.437 ± 0.0083 | 1.52 ± 0.12 | -0.0902 ± 0.05 | 1.7 ± 0.067 |
| CACACA | -0.628 ± 0.032 | 1.45 ± 0.11 | -0.354 ± 0.056 | 1.64 ± 0.089 |
| GAACCC | 0.196 ± 0.15 | 1.82 ± 0.026 | 0.39 ± 0.019 | 1.91 ± 0.12 |
| AAAAUU | -0.708 ± 0.058 | 1.62 ± 0.034 | -0.4137 ± 0.00058 | 1.76 ± 0.085 |
| AAAAUC | 0.0212 ± 0.1 | 1.62 ± 0.028 | 0.2003 ± 0.0016 | 1.76 ± 0.06 |
| AAAAUG | -0.0352 ± 0.079 | 1.5 ± 0.05 | 0.319 ± 0.046 | 1.7 ± 0.12 |
| GAACUA | -0.288 ± 0.19 | 1.6 ± 0.068 | 0.0146 ± 0.12 | 1.77 ± 0.091 |
| UACAAC | 0.031 ± 0.034 | 1.68 ± 0.03 | 0.268 ± 0.013 | 1.8 ± 0.11 |
| GACAAG | -0.339 ± 0.07 | 1.55 ± 0.029 | -0.0999 ± 0.034 | 1.72 ± 0.084 |
| GACAAC | -0.156 ± 0.0096 | 1.63 ± 0.022 | 0.197 ± 0.1 | 1.82 ± 0.12 |
| GAAUGC | 0.00373 ± 0.18 | 1.63 ± 0.013 | 0.31 ± 0.049 | 1.75 ± 0.12 |
| GAAUGA | -0.606 ± 0.037 | 1.48 ± 0.06 | -0.296 ± 0.056 | 1.65 ± 0.16 |
| GAAUGG | -0.119 ± 0.036 | 1.62 ± 0.041 | 0.0864 ± 0.016 | 1.75 ± 0.086 |
| GAAGGA | -0.325 ± 0.067 | 1.44 ± 0.093 | 0.0781 ± 0.006 | 1.59 ± 0.067 |
| GAACAG | -0.182 ± 0.12 | 1.753 ± 0.015 | 0.0981 ± 0.039 | 1.82 ± 0.094 |
| GAAACA | -0.441 ± 0.093 | 1.61 ± 0.023 | -0.185 ± 0.018 | 1.73 ± 0.1 |

| Variant | FACS-Seq fitted mean (log10) [1] | normalized RNA/DNA level without ligand (log10) [2] | FACS-Seq fitted mean (log10) [3] | normalized RNA/DNA level with ligand (log10) [4] |
| --- | --- | --- | --- | --- |
| AAAGGA | -0.691 ± 0.009 | 1.31 ± 0.13 | -0.5317 ± 0.0025 | 1.47 ± 0.11 |
| AAAGGU | -0.701 ± 0.017 | 1.54 ± 0.054 | -0.44 ± 0.065 | 1.71 ± 0.1 |
| AAAGGG | -0.506 ± 0.051 | 1.37 ± 0.078 | -0.2804 ± 0.00041 | 1.59 ± 0.077 |
| AACAAU | -0.133 ± 0.038 | 1.594 ± 0.0028 | 0.103 ± 0.014 | 1.71 ± 0.13 |
| AACAAG | -0.43 ± 0.028 | 1.523 ± 0.0073 | -0.281 ± 0.037 | 1.73 ± 0.088 |
| CAAGUU | -0.164 ± 0.058 | 1.71 ± 0.027 | 0.078 ± 0.065 | 1.86 ± 0.12 |
| CAAGUA | -0.495 ± 0.0052 | 1.46 ± 0.13 | -0.203 ± 0.02 | 1.63 ± 0.07 |
| AAACGG | -0.275 ± 0.019 | 1.5 ± 0.12 | 0.0867 ± 0.11 | 1.7 ± 0.1 |
| GAAGAA | -0.423 ± 0.0092 | 1.38 ± 0.15 | -0.233 ± 0.045 | 1.59 ± 0.08 |
| GAAGAU | -0.28 ± 0.1 | 1.5 ± 0.088 | 0.0337 ± 0.016 | 1.65 ± 0.14 |
| AAAACG | -0.442 ± 0.098 | 1.5 ± 0.072 | -0.105 ± 0.12 | 1.71 ± 0.079 |
| UAAUGA | -0.416 ± 0.019 | 1.597 ± 0.0061 | -0.112 ± 0.13 | 1.77 ± 0.086 |
| UAAUGC | -0.174 ± 0.058 | 1.69 ± 0.032 | -0.398 ± 0.12 | 1.84 ± 0.073 |
| CAACAU | -0.377 ± 0.0095 | 1.43 ± 0.089 | -0.0626 ± 0.039 | 1.64 ± 0.13 |
| CAACAA | -0.326 ± 0.062 | 1.37 ± 0.11 | 0.0147 ± 0.011 | 1.53 ± 0.1 |
| UAAUAG | -0.126 ± 0.087 | 1.667 ± 0.0048 | -0.0799 ± 0.024 | 1.83 ± 0.099 |
| CAAAGA | -0.231 ± 0.15 | 1.47 ± 0.074 | 0.00425 ± 0.022 | 1.68 ± 0.1 |
| CAAAGU | 0.000886 ± 0.21 | 1.7 ± 0.032 | 0.204 ± 0.087 | 1.79 ± 0.12 |
| CAAUAU | -0.659 ± 0.028 | 1.49 ± 0.061 | -0.365 ± 0.019 | 1.67 ± 0.11 |
| CAAUAA | -0.688 ± 0.028 | 1.25 ± 0.083 | -0.398 ± 0.011 | 1.52 ± 0.074 |
| CAAAUU | -0.59 ± 0.046 | 1.45 ± 0.12 | -0.349 ± 0.046 | 1.67 ± 0.076 |
| CAAAUA | -0.296 ± 0.0065 | 1.28 ± 0.11 | -0.211 ± 0.2 | 1.46 ± 0.14 |
